Test [1] deals with T1, Lys48-linked UB chains (Ub2-7) (UniProt P0CG48 1-76, isopeptide bond between the C-terminus of the distal UB and Lys48 of the proximal UB).
T1 construct: Bought mixture of chain lengths Ub2-7; also called K48-linked UB chains; K48-linked ubiquitin chains
Description: GST pull-down, immunoblot. From the text: (§1) The GST pull-down assay and the detection of pulled-down products by immunoblotting has been previously described (Fatimababy et al., (2010) FEBS J. 277, 796-816; Lin et al., (2011) Plant Cell 23, 2754-2773). The Lys48- and Lys63-linked UB chains (Ub2-7) were purchased from Boston Biochem.
(Immunoblotting shows a protein as a band on a membrane.)

The target in test [2] is T2, Lys63-linked UB chains (Ub2-7) (UniProt P0CG48 1-76, isopeptide bond between the C-terminus of the distal UB and Lys63 of the proximal UB).
T2 construct: Bought mixture of chain lengths Ub2-7; also called K63-linked UB chains; K63-linked ubiquitin chains
The test is described as follows: GST pull-down, immunoblot.
Source text: as §1

B1: GST-OTU9 (enzyme)
chain: MGYEPDPDALRWGLHDLEVCTLTNAGSCSSVTRYESGGGGTQGYVREGYNQPVTGYVDNDAVIAQFYQDELSRVARAEASGINSLSPTSVVAQDWPHPHQGQENQGEAIDITQESDILHNHNGNMEDKNVARIRFEGGQSSPSRDDDSVCSVEIEEESWSEVGKRLNQMIPIAHVPKINGELPSEDEQISDHERLFQRLQLYGLVENKIEGDGNCQFRSLSDQLYRSPEHHNFVREQVVNQLAYNREIYEGYVPMAYNDYLKAMKRNGEWGDHVTLQAAADLFGVRMFVITSFKDTCYIEILPHFQKSNRLICLSFWAEVHYNSIYPEGELPIPEGKKKKKYWVF
notes: Full-length coding region in pET42, expressed in E. coli; also called OTU9 (GST fusion); not shown: GST and His tags from pET42 vector
Consider B1, for which the binding result in test [1] and in test [2] was “no binding” in each case.

B2: GST-OTU7a (enzyme)
chain: MAKTKQQKSKPKKQPHQKQGKDCDLSQFRAQLDALGLKIIQVTADGNCFFRAIADQLEGNEDEHNKYRNMIVLYIVKNREMFEPFIEDDVPFEDYCKTMDDDGTWAGNMELQAASLVTRSNICIHRNMSPRWYIRNFEDTRTRMIHLSYHDGEHYNSVRSKEDACGGPARPVVIEADAKVSAASKQAKATESKSKNKADKCHVNAGAIKVVMSGSCCDNTEKAEQVLLQVNGDVDAAIEFLIADQGMESLTENDTETASASDTINPKHASDSPMENTEQAREELIEEESASGNNSETVQAKCTTQTDDKKIPRNKTCPCGSKKKYKSCCGTATGRSSVKLLVSQTMESKKGRKNLRRGTSNEVEANAPDVGALCI
notes: Full-length coding region in pET42, expressed in E. coli; also called OTU7a (GST fusion); not shown: GST and His tags from pET42 vector
On to B2, for which the binding result in test [1] and in test [2] was “no binding” each time.

B3: GST-OTU4c (enzyme)
chain: MMICYSPITTCSRNAISIKRHLGSRLYGVVAHGSSKFSCYSLLSGLSRRHYTGFRVSVSNRPSSWHDKGLFGFAYTGVIVSLLVCYSSTSQSAYADSSRDKDANNVHHHSSDGKFHNGKRVYTDYSIIGIPGDGRCLFRSVAHGFCLRSGKLAPGEKMQRELADELRTRVADEFIQRRQETEWFVEGDFDTYVRQIRDPHVWGGEPELFMASHVLQMPITVYMKDDKAGGLISIAEYGQEYGKDDPIRVLYHGFGHYDALLLHESKASIPKSKL
notes: Full-length coding region in pET42, expressed in E. coli; also called OTU4c (GST tag); not shown: GST and His tags from pET42 vector
As for B3, the binding result in test [1] and in test [2] was “no binding” throughout.

B4: GST-OTU10 (enzyme)
chain: MVSHEENTSIVEWFLGPHPYTYPPYGIEMIHEDDEVAVAHHHHHHQSGEYYREYEDHRSSDVDNDEIIARTLQDDFLQLEIAESNDYSHQNQQQQHQQEGYTNNYSNNNNGYAWNDQSPAVDYSSEWIGNDNDQDGRSDDSVNVFSCSSPSDTDEYVYSWESDQCDADGEFGRRLNQMVPIPYIPKINGEIPPEEEAVSDHERLRNRLEMFDFTEVKVPGDGNCQFRALADQLYKTADRHKHVRRQIVKQLKSRPDSYQGYVPMDFSDYLRKMSRSGEWGDHVTLQAAADAYRVKIVVLTSFKDTCYIEILPTSQESKGVIFLSFWAEVHYNAIYLNRDTSETELQRKRKWWRFGN
notes: also called OTU10 (GST tag); not shown: GST and His tags from pET42 vector
Consider B4, for which the binding result in test [1] and in test [2] was “no binding” in each case.

B5: GST-OTU3 (enzyme)
chain: MELKSSSNNNILEQLRNGFARFELVSSPTASVSDSISSTSLPASFISTTKGNSYVFFARINSSMNRSPAAKKVEKYAVDRVKGDGRCLFRALVKGMAFNKGITLNPQRERDDADELRMAVKEVICNDPKEREKYKEALVAITVDESLKRFCQRIGRHDFWGGESELLVLSKLCKQPIIVYIPEHEHGRGGGYGPGFIPIQEYGSEFRGGWGKGKTNKNVVRLLYSGRNHYDLLR
notes: Full-length coding region in pET42, expressed in E. coli; also called OTU3 (GST fusion); not shown: GST and His tags from pET42 vector
Take B5: the binding result in test [1] and in test [2] was “no binding” throughout.
